Reference: patent US20240132591A1 (PANDION OPERATIONS, published 2024)
Residue numbers refer to the chain shown, from its start.

T1: Human MAdCAM (human, UniProt Q13477 19-317, limits assumed)
T1 construct: also called huMAdCAM; human MAdCAM-1
T1 sequence (looked up): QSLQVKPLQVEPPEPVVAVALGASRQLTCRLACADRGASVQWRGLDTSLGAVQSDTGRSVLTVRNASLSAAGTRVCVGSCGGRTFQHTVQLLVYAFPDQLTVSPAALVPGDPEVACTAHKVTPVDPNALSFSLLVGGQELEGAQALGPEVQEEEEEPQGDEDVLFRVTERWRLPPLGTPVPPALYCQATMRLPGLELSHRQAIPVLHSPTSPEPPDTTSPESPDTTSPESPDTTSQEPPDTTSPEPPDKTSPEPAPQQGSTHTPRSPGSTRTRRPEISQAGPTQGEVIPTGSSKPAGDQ

B1: MIAB204 (Fc fusion)
chain: APTSSSTKKTQLQLEHLLLDLQMILNGINNYKNPKLTRMLTFKFYMPKKATELKHLQCLEEELKPLEEALNLAPSKNFHLRPRDLISDINVIVLELKGSETTFMCEYADETATIVEFINRWITFSQSIISTLTGGGGSGGGGSGGGGSGGGGSDKTHTCPPCPAPEAAGAPSVFLFPPKPKDTLMISRTPEVTCVVVDVSHEDPEVKFNWYVDGVEVHNAKTKPREEQYNSTYRVVSVLTVLHQDWLNGKEYKCKVSNKALPAPIEKTISKAKGQPREPQVYTLPPSREEMTKNQVSLTCLVKGFYPSDIAVEWESNGQPENNYKTTPPVLDSDGSFFLYSKLTVDKSRWQQGNVFSCSVMHEALHNHYTQKSLSLSPGGGGGSGGGGSGGGGSEVQLLESGGGLVQPGGSLRLSCAASGFTFSDFWMHWVRQAPGKGLEWISYISGDSGYTNYADSVKGRFTISRDNSKNTLYLQMNSLRAEDTAVYYCARDRPYYYYMDVWGKGTTVTVSSGGGGSGGGGSGGGGSGGGGSDIQMTQSPSSLSASVGDRVTITCRASQSVSRSLAWYQQKPGKAPKLLIYAASSLQSGVPSRFSGSGSGTDFTLTISSLQPEDFATYYCQQYKSYPVTFGQGTKVEIK
B2: MIAB148 (antibody, human IgG1, kappa)
heavy: EVQLLESGGGLVQPGGSLRLSCAASGFTFSDFWMHWVRQAPGKGLEWISYISGDSGYTNYADSVKGRFTISRDNSKNTLYLQMNSLRAEDTAVYYCARDRPYYYYMDVWGKGTTVTVSSASTKGPSVFPLAPSSKSTSGGTAALGCLVKDYFPEPVTVSWNSGALTSGVHTFPAVLQSSGLYSLSSVVTVPSSSLGTQTYICNVNHKPSNTKVDKKVEPKSCDKTHTCPPCPAPEAAGAPSVFLFPPKPKDTLMISRTPEVTCVVVDVSHEDPEVKFNWYVDGVEVHNAKTKPREEQYNSTYRVVSVLTVLHQDWLNGKEYKCKVSNKALPAPIEKTISKAKGQPREPQVYTLPPSREEMTKNQVSLTCLVKGFYPSDIAVEWESNGQPENNYKTTPPVLDSDGSFFLYSKLTVDKSRWQQGNVFSCSVMHEALHNHYTQKSLSLSPGGGGGSAPTSSSTKKTQLQLEHLLLDLQMILNGINNYKNPKLTRMLTFKFYMPKKATELKHLQCLEEELKPLEEALNLAPSKNFHLRPRDLISDINVIVLELKGSETTFMCEYADETATIVEFINRWITFSQSIISTLT
light: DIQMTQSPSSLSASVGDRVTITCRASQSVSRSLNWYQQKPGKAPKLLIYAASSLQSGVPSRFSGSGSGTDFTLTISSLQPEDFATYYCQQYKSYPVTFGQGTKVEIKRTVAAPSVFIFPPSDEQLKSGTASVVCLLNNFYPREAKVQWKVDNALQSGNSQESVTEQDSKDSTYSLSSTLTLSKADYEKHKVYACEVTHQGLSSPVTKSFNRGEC
B3: MIAB155 (antibody, human IgG1, kappa)
heavy: B2 heavy
light: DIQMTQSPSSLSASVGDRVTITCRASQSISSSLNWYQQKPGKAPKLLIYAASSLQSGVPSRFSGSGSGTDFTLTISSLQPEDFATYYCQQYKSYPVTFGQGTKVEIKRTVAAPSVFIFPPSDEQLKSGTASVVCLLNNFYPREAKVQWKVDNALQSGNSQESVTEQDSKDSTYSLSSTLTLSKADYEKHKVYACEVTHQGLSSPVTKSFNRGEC
B4: MIAB158 (antibody, human IgG1, kappa)
heavy: B2 heavy
light: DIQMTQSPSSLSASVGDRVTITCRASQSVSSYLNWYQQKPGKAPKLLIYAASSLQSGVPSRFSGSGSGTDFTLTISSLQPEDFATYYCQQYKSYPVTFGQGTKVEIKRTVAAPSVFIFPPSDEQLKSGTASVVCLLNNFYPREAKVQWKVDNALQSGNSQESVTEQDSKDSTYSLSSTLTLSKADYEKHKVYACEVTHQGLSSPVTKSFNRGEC
B5: MIAB139 (antibody)
heavy: B2 heavy
light: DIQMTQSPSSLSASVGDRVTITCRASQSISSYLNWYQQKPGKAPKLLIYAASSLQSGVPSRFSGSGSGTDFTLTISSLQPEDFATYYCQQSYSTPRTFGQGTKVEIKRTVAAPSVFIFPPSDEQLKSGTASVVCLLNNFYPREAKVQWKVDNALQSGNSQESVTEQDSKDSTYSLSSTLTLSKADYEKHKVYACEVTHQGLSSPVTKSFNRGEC
B6: MIAB129 (antibody, human IgG1, kappa)
heavy: B2 heavy with Y102G
light: DIQMTQSPSSLSASVGDRVTITCRASQSVSRSLAWYQQKPGKAPKLLIYAASSLQSGVPSRFSGSGSGTDFTLTISSLQPEDFATYYCQQYKSYPVTFGQGTKVEIKRTVAAPSVFIFPPSDEQLKSGTASVVCLLNNFYPREAKVQWKVDNALQSGNSQESVTEQDSKDSTYSLSSTLTLSKADYEKHKVYACEVTHQGLSSPVTKSFNRGEC
B7: MIAB198 (antibody, human IgG1, kappa)
heavy: B2 heavy with Y105I, T456A
light: B6 light
notes: also called MIAB198-CHO; MIAB198-HEK
B8: MIAB141 (antibody, human IgG1, kappa)
heavy: B2 heavy
light: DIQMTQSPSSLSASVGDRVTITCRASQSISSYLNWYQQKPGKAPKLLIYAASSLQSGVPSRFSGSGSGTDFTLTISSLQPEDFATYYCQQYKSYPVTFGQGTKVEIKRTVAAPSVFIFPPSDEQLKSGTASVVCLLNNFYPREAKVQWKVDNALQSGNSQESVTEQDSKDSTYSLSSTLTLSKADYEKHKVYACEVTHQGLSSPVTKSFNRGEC
notes: LCDR1 germlined
B9: MIAB182 (antibody, human IgG1, kappa)
heavy: B2 heavy with D31S, F32Y, I48V, Y50A, D54S, S55G, Y57S, N59Y
light: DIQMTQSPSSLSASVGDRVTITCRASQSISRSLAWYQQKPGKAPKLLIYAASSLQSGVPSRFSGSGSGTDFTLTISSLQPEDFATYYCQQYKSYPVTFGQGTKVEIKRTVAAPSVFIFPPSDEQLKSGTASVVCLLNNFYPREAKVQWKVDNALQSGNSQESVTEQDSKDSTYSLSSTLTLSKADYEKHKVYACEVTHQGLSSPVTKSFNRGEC
notes: also called MIAB182-001
B10: MIAB145 (antibody, human IgG1, kappa)
heavy: B2 heavy
light: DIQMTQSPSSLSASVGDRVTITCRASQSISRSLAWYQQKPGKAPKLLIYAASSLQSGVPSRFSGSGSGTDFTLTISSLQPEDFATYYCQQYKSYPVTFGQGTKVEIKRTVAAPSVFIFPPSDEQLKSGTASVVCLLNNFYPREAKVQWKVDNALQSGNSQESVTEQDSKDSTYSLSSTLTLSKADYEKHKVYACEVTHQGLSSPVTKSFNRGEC
notes: also called MIAB145-001
B11: MIAB147 (antibody, human IgG1, kappa)
heavy: B2 heavy
light: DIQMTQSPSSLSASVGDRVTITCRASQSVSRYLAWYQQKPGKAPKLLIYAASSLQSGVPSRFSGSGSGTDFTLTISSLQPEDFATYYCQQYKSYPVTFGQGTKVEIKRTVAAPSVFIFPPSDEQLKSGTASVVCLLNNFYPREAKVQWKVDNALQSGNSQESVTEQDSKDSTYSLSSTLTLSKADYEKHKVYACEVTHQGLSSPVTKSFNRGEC
notes: also called MIAB147-001
B12: MIAB146 (antibody, human IgG1, kappa)
heavy: B2 heavy
light: B6 light with R31S
notes: also called MIAB146-001
B13: MIAB175 (antibody, human IgG1, kappa)
heavy: B2 heavy with D31S, F32Y
light: B6 light
notes: also called MIAB175-001
B14: MIAB184 (antibody, human IgG1, kappa)
heavy: B2 heavy with D31S, F32Y, I48V, Y50A, D54S, S55G, Y57S, N59Y
light: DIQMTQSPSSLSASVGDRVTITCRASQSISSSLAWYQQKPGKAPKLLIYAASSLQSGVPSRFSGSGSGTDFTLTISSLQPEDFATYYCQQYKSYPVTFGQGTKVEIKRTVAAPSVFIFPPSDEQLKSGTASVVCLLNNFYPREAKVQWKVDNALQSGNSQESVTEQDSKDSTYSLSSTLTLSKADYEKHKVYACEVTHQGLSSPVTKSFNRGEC
notes: also called MIAB184-001
B15: MIAB178 (antibody, human IgG1, kappa)
heavy: B2 heavy with D31S, F32Y, Y50A, D54S, Y57S, N59Y
light: B6 light
notes: also called MIAB178-001
B16: MIAB183 (antibody, human IgG1, kappa)
heavy: B2 heavy with D31S, F32Y, I48V, Y50A, D54S, S55G, Y57S, N59Y
light: B6 light with R31S
notes: also called MIAB183-001
B17: MIAB149 (antibody, human IgG1, kappa)
heavy: B2 heavy
light: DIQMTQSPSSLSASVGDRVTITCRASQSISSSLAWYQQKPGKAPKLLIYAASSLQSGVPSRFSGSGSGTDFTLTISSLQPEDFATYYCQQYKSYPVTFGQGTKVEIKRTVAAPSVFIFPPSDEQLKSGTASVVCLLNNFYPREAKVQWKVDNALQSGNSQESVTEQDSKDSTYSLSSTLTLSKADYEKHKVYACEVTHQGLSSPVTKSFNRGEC
notes: also called MIAB149-001
B18: MIAB177 (antibody, human IgG1, kappa)
heavy: B2 heavy with I48V, Y50A, D54S, S55G, Y57S, N59Y
light: B6 light
notes: also called MIAB177-001
B19: MIAB174 (antibody, human IgG1, kappa)
heavy: B2 heavy with F32Y
light: B6 light
notes: also called MIAB174-001

Each binder was assayed against T2, Insulin (UniProt P01308 25-54; P01308 90-110) (assay: ELISA on insulin-coated plate, 100 nM).
T2 construct: Polyreactivity antigen; mature insulin has A and B chains; also called human insulin
Procedure: Non-specific DNA and Insulin binding is predictive of poor pharmacokinetics (PK). An immunosorbent plate was coated with dsDNA at a concentration of 1 μg/mL or Insulin at 5 μg/mL in PBS pH 7.4, 75 μl/well, and incubated overnight at 4° C. Wells were washed with PBS pH 7.4 containing 0.05% Tween-20 (wash buffer) three times, and then blocked with 200 μl/well 1% BSA in PBS pH 7.4 (block buffer) for two hours at room temperature. […] The diluted material was added to the DNA/insulin coated plate at 75 μl/well for 1 hour at room temperature. After three washes with wash buffer, a donkey anti-human FcY HRP conjugated polyclonal antibody, diluted to 1:5000 in assay buffer, was added to the plate at 75 μl/well for 1 hr at room temperature. After three washes with wash buffer and three washes with wash buffer (with no tween-20), the assay was developed with TMB, and stopped with 1N HCL. OD 450 nm was measured. The experiment included appropriate controls for non-specific binding of test articles to the plate/block in the absence of DNA or insulin.

| Insulin polyreactivity score | Binder |
| --- | --- |
| 8.43 | B1 |
| 3.63 | B2 |
| 1.99 | B3 |
| 2.67 | B4 |
| 2.08 | B5 |
| 2.43 | B6 |

Each binder was assayed against T2, Insulin (assay: ELISA on insulin-coated plate).

| binding result | Binder |
| --- | --- |
| no binding (tested: 100 nM) | B1 |
| no binding (tested: 100 nM) | B2 |
| no binding (tested: 100 nM) | B3 |
| no binding (tested: 100 nM) | B4 |
| no binding (tested: 100 nM) | B7 |
| no binding (tested: 100 nM) | B5 |
| no binding (tested: 100 nM) | B8 |
| no binding (tested: 100 nM) | B6 |

These binders were tested against T1, Human MAdCAM (assay: BLI Octet, AHC capture).

| Kd [nM] | koff [s⁻¹] | kon [M⁻¹ s⁻¹] | fold reduction of affinity vs PRNT1 [fold] | binding result | Binder |
| --- | --- | --- | --- | --- | --- |
| 2690 | 0.314 | 117000 |  |  | B2 |
| 119 | 0.0267 | 226000 | 10 |  | B9 |
| 22.2 | 0.00897 | 405000 |  |  | B10 |
|  |  |  |  | no binding (tested: 200 nM) | B11 |
| 43.8 | 0.0197 | 449000 |  |  | B12 |
| 22.6 | 0.0106 | 471000 |  |  | B13 |
| 563 | 0.0818 | 145000 | 40 |  | B14 |
| 519 | 0.22 | 372000 |  |  | B15 |
| 362 | 0.0599 | 166000 | 20 |  | B16 |
|  |  |  |  | no binding (tested: 150 nM) | B8 |
| 68.8 | 0.0259 | 376000 |  |  | B17 |
| 218 | 0.0851 | 391000 |  |  | B18 |
| 21.8 | 0.00969 | 445000 |  |  | B19 |
